Experimental data published in PMC2990333.
Each block holds one substance with its values, some of them ahead of it.

Assays:
[1] = target: 25kD protein (immunoreactive P29 form of Drosophila) (Drosophila melanogaster); assay: not stated; dimerisation of the 25kD protein under in vitro conditions
[2] = target: Aedes aegypti sterol carrier protein-2-like-2 (SCP-2-L2) (Aedes aegypti); assay: crystal structure; ligand-bound X-ray structure at 1.7-angstrom resolution, with bound fatty acid
[3] = target: OBP48 expressed in lepidopteran cells (Anopheles gambiae); assay: co-IP + cross-linking; OBPs expressed in lepidopteran cells, examined for in vitro interactions in the absence of exogenously added ligands; chemical cross-linking

stoichiometry N [1]: 2
Substance: 25kD protein (immunoreactive P29 form of Drosophila) (natural protein)

stoichiometry N [2]: 2
Substance: Aedes aegypti sterol carrier protein-2-like-2 (SCP-2-L2) (natural protein)

stoichiometry N [3]: 2
Substance: OBP48 expressed in lepidopteran cells (natural protein)
